Measured values as given in patent US6436691B1, “Chemical compounds” (Zeneca Limited, priority 1995, dated 2002).

Columns and labels:
[1] = Km and kcat of recombinant HCPB against Hipp-Arg, spectrophotometric assay; type: biochemical; details: Hipp-Arg 0.75-[…]; CPB 1 μg/ml; 37° C.; pH 7.5
Protocol: Purified human CPB, produced as described in Reference Example 12, was assayed for its ability to convert hippuryl-L-arginine (Hipp-Arg; Sigma) to hippuric acid using a spectrophotometric assay.
Measurements were carried out at 37° C. in 0.25 mM Tris HCl buffer, pH 7.5 using 1 cm path length cuvettes in a total volume of 1.0 ml using a Perkin Elmer Lambda 2 spectrophotometer. Km and Vmax values were calculated using the ENZFITTER software programme (Biosoft, Perkin Elmer). Kcat was calculated from Vmax by dividing by the enzyme concentration in the reaction mixture.

[2] = Conversion of Hipp-Asp to hippuric acid by mutant and native human CPB, HPLC assay (Example 6); type: biochemical; details: 5 hr at 37° C.; 4 μg enzyme; 0.5 mM substrate
Protocol: (§1) Purified mutants of human CPB (D253K and D253R; Examples 1-3) and native human CPB, produced as described in Reference Example 12, were assayed for their ability to convert either hippuryl-L-aspartic acid (Hipp-Asp—Reference Example 2), hippuryl-L-glutamic acid (Hipp-Glu—Reference Example 1) or hippuryl-L-arginine (Sigma Chemical Company—cat no. H6625) to hippuric acid using a HPLC based assay.
(§2) The reaction mixture (250 μl) contained 4 μg human CPB (native or mutant) and 0.5 mM Hipp-Asp or Hipp-Glu in 0.025 M Tris-HCL, pH 7.5. Samples were incubated for 5 hr at 37° C. The reactions were terminated by the addition of 250 μl of 80% methanol, 20% distilled water, 0.2% trifluoro acetic acid and the amount of hippuric acid generated was quantified by HPLC.
(§3) HPLC analysis was carried out using a Hewlett Packard 1090 Series 11 (with diode array) HPLC system. Samples (50 μl) were injected onto a Hichrom Hi-RPB column (25 cm) and separated using a mobile phase of 40% methanol, 60% distilled water, 0.1% trifluoro acetic acid at a flow rate of 1 ml/min. The amount of product (hippuric acid) produced was determined from calibration curves generated with known amounts of hippuric acid (Sigma-H6375). The results are shown in Table 1 and are expressed as the percentage conversion of substrate into product in 5 hr at 37° C. with 4 μg enzyme.

[3] = Conversion of Hipp-Glu to hippuric acid by mutant and native human CPB, HPLC assay (Example 6); type: biochemical; details: 5 hr at 37° C.; 4 μg enzyme; 0.5 mM substrate
Protocol: as §1, §2, §3

[4] = Conversion of Hipp-Arg to hippuric acid by mutant and native human CPB, HPLC assay (Example 6); type: biochemical; details: 5 hr at 37° C.; 4 μg enzyme
Protocol: as §1, §2, §3

[5] = tested on: LoVo colorectal tumour cells; details: 100 μg enzyme added to assay wells containing glutamic acid prodrug
[6] = Activity against Hipp-Glu in crude E. coli periplasmic shockate relative to D253K or D253R HCPB (Example 16); type: biochemical
Excerpt: (§4) A number of other mutant HCPBs have been constructed in a similar manner to the methods described in Reference Examples 7 and 8, and Examples 12, 13, 14 and 15. In each case oligos were constructed to introduce specific changes in the gene sequence by methods similar to those described above. In some cases additional mutations were identified upon complete sequencing of the mutated gene, and these were presumably introduced during the PCR reactions. Mutants with enzyme activity against substrate analogues (see Example 18 below) have been identified, and examples of these are given in Table 4 below. […] This material is subsequently referred to as periplasmic shockate or shockate and is prepared by the following procedure.
(§5) 1. A single colony was used to inoculate 75 ml of L-broth nutrient media containing 10 μg/ml tetracycline and arabinose to a final concentration of 0.01% (w/v). Incubation was performed at 20° C. with shaking (250 rpm) for about 60 hours.
(§6) 2. The cells were then harvested by centrifugation at 4° C.
(§7) 3. The cell pellet was re-suspended in 300 micro-liters of 20% sucrose (w/v) containing 1 mM EDTA in 200 mM Tris-HCl at pH7.5, and incubated at room-temperature for 15 minutes.
(§8) 4. Periplasmic shockate was generated by the addition of 450 micro-liters of distilled water, and a further incubation at room-temperature for 15 minutes.
(§9) 5. Cellular remains were removed by centrifugation, and the supernatant assayed for enzyme activity as soon as possible after preparation and kept at 4° C. prior to assay.
The activity of [G251T,D253K]HCPB was measured using the assay conditions described in Example 17 but using either 50 μl of a neat or 1 in 10 or 1 in 100 dilution of [G251T,D253K]HCPB crude E.coli periplasmic shockate (shockate) sample in place of purified enzyme. Samples were incubated for 24 h at 37° C. […] The amount of Hippuric acid produced in 24 h was quantified by HPLC as described in Example 17 and the results are shown in Table 6 and are expressed as the percentage conversion of substrate into product in 24 h at 37° C.

[7] = Activity against Hipp-Asp in crude E. coli periplasmic shockate relative to D253K or D253R HCPB (Example 16); type: biochemical
Excerpt: as §4, §5, §6, §7, §8, §9
(§10) The activity of [G251T,D253K]HCPB was measured using the assay conditions described in Example 17 but using either 50 μl of a neat or 1 in 10 or 1 in 100 dilution of [G251T,D253K]HCPB crude E.coli periplasmic shockate (shockate) sample in place of purified enzyme. Samples were incubated for 24 h at 37° C. […] For other HCPB mutants, the reaction volume was 250 μl and contained 125 μl of neat shockate or 1 in 50 dilution of shockate. The shockate samples were prepared as described in Example 16. The amount of Hippuric acid produced in 24 h was quantified by HPLC as described in Example 17 and the results are shown in Table 6 and are expressed as the percentage conversion of substrate into product in 24 h at 37° C.

[8] = Conversion of Hipp-Glu by purified HCPB mutants, 30 minutes, HPLC (Example 17); type: biochemical; details: 0.5 mM substrate, 30 minutes at 37° C.
Protocol: (§11) Purified mutants of human CPB (D253K; [G251K,D253R]; [G251N,D253R]; [I201S,D253K]; [G251N,D253K]; [Q54R,D145A,D253K]; [G251T,D253K]; [G251S,D253K]; [A248N,G251N,D253K]; [A248S,G251N,D253K] and [S205N,G251N,D253K]—described in Examples 3, 12, 13, 16, 28, 30, 31, 32 and 33) were assayed for their ability to convert hippuryl-L-glutamic acid (Hipp-Glu—Reference Example 1), hippuryl-L-aspartic acid (Hipp-Asp—Reference Example 2) and hippuryl-L-arginine (Sigma Chemical Company—cat no. H6625) to hippuric acid using a HPLC based assay similar to that described in Example 6.
(§12) Samples were incubated for 30 minutes at 37° C. The reactions were terminated by the addition of 500 μl of 40% methanol, 60% distilled water, 0.2% trifluoro acetic acid and the amount of hippuric acid generated was quantitated by HPLC as described in Example 6 but using a mobile phase of 20% methanol, 80% 50 mM phosphate buffer, pH 6.5. Hippuric acid was detected at 230 nm. The results are shown in Table 5 and are expressed as the percentage conversion of substrate into product in 30 minutes at 37° C.

[9] = Conversion of Hipp-Asp by purified HCPB mutants, 30 minutes, HPLC (Example 17); type: biochemical; details: 0.5 mM substrate, 30 minutes at 37° C.
Protocol: as §11, §12

[10] = Conversion of Hipp-Arg by purified HCPB mutants, 30 minutes, HPLC (Example 17); type: biochemical; details: 0.5 mM substrate, 30 minutes at 37° C.
Protocol: as §11, §12

[11] = Conversion of prodrug of Example 24 to drug of Example 25 by HCPB mutants, HPLC (Example 20); type: biochemical; details: 0.5 mM prodrug of Example 24, 5 minutes at 37° C.
Protocol: The reaction was stopped by adding MeCN (500 μl) plus 0.2% Trifluoroacetic acid. The amount of drug produced was then quantified by HPLC.
HPLC separation was carried out as described in Example 6 except that a mobile phase of 70% MeCN, 30% distilled water and 0.1% trifluoroacetic acid was used to achieve separation of prodrug (retention time 3.8 minutes) and drug (retention time 4.9 minutes) and the compounds were detected at 260 nm. The amount of drug produced was quantified from calibration curves generated with known amounts of drug.
The amount of [Q54R,D145A,D253K]HCPB and [G251T,D253K]HCPB mutants was reduced to 0.75 μg in the reaction mixture.

[12] = Km and kcat of HCPB mutants with Hipp-Glu (Example 7); type: biochemical; details: Hipp-Glu 0.25-8.0 mM; pH 7.5; 5 h at 37° C.
Protocol: Hipp-Glu and Hipp-Asp were diluted in range 0.25-8.0 mM and 0.25-5.0 mM respectively in 0.025 M Tris-HCL buffer, pH 7.5. Where necessary substrate samples were adjusted to pH 7.5 with 1M NaOH.
Samples were incubated for 5 h at 37° C. Reactions were terminated by the addition of 500 μl methanol/distilled water (80/20) containing 0.2% TFA. The amount of hippuric acid produced was quantified by HPLC as described in Example 6.
Km and Vmax values were calculated using the ENZFITTER software programme (Biosoft, Perkin Elmer).

[13] = Conversion of Hipp-Glu by periplasmic shockate of HCPB mutants, 24 h (Example 18); type: biochemical; details: for Hipp-Glu (% conversion): 24 h at 37° C.
Protocol: as §10

[14] = Conversion of Hipp-Asp by periplasmic shockate of HCPB mutants, 24 h (Example 18); type: biochemical; details: 24 h at 37° C.
Protocol: as §10

[15] = Conversion of Hipp-Arg by periplasmic shockate of HCPB mutants, 24 h (Example 18); type: biochemical; details: 24 h at 37° C.
Protocol: as §10

[16] = shockate concentration in reaction mixture 1 %
[17] = shockate concentration in reaction mixture 10 %

B1: Native HCPB: purified recombinant native human pancreatic carboxypeptidase B (protein, UniProt P15086 111-417, looked up)
Carboxypeptidase B: ATGHSYEKYNKWETIEAWTQQVATENPALISRSVIGTTFEGRAIYLLKVGKAGQNKPAIFMDCGFHAREWISPAFCQWFVREAVRTYGREIQVTELLDKLDFYVLPVLNIDGYIYTWTKSRFWRKTRSTHTGSSCIGTDPNRNFDAGWCEIGASRNPCDETYCGPAAESEKETKALADFIRNKLSSIKAYLTIHSYSQMMIYPYSYAYKLGENNAELNALAKATVKELASLHGTKYTYGPGATTIYPAAGGSDDWAYDQGIRYSFTFELRDTGRYGFLLPESQIRATCEETFLAIKYVASYVLEHLY
- Km [1]: 180 µM
- kcat against Hipp-Arg [1]: 65 s⁻¹
- Hipp-Asp (% conversion to Hippuric acid) [2]: 0%
- Hipp-Glu (% conversion to Hippuric acid) [3]: 0%
- Hipp-Arg (% conversion to Hippuric acid) [4]: 100%
- cytotoxicity of the glutamic acid prodrug with enzyme added [5]: does not significantly enhance

B2: [I201S, D253K]: HCPB mutant with I201S and D253K (protein, UniProt P15086 111-417, looked up, variant I201S D253K)
Carboxypeptidase B: ATGHSYEKYNKWETIEAWTQQVATENPALISRSVIGTTFEGRAIYLLKVGKAGQNKPAIFMDCGFHAREWISPAFCQWFVREAVRTYGREIQVTELLDKLDFYVLPVLNIDGYIYTWTKSRFWRKTRSTHTGSSCIGTDPNRNFDAGWCEIGASRNPCDETYCGPAAESEKETKALADFIRNKLSSIKAYLTIHSYSQMMSYPYSYAYKLGENNAELNALAKATVKELASLHGTKYTYGPGATTIYPAAGGSKDWAYDQGIRYSFTFELRDTGRYGFLLPESQIRATCEETFLAIKYVASYVLEHLY
- Hipp-Glu, activity relative to D253K HCPB or D253R HCPB [6]: NAD (No activity detected)
- Hipp-Asp, activity relative to D253K HCPB or D253R HCPB [7]: b (activity equivalent to D253R HCPB)
- Hipp-Glu (% conversion) ([8]; enzyme 2.5 μg/ml): 4.6%
- Hipp-Glu (% conversion) ([8]; enzyme 25 μg/ml): 27.8%
- Hipp-Asp (% conversion) ([9]; enzyme 2.5 μg/ml): 5.8%
- Hipp-Asp (% conversion) ([9]; enzyme 25 μg/ml): 33.1%
- Hipp-Arg (% conversion) ([10]; enzyme 2.5 μg/ml): 0%
- Hipp-Arg (% conversion) ([10]; enzyme 25 μg/ml): 0%
- Prodrug Hydrolysis (%) ([11]; enzyme 15 μg/ml): 72.6%

B3: [G251T,D253K]: HCPB mutant with G251T and D253K, (His)6-c-myc tag (protein, UniProt P15086 111-417, looked up, variant G251T D253K)
Carboxypeptidase B: ATGHSYEKYNKWETIEAWTQQVATENPALISRSVIGTTFEGRAIYLLKVGKAGQNKPAIFMDCGFHAREWISPAFCQWFVREAVRTYGREIQVTELLDKLDFYVLPVLNIDGYIYTWTKSRFWRKTRSTHTGSSCIGTDPNRNFDAGWCEIGASRNPCDETYCGPAAESEKETKALADFIRNKLSSIKAYLTIHSYSQMMIYPYSYAYKLGENNAELNALAKATVKELASLHGTKYTYGPGATTIYPAAGTSKDWAYDQGIRYSFTFELRDTGRYGFLLPESQIRATCEETFLAIKYVASYVLEHLY
modifications: (His)6-c-myc tag
- Km [12]: 1.1 mM
- kcat, Hipp-Glu [12]: 75 s⁻¹
- Hipp-Glu (% conversion) ([8]; enzyme 0.02 μg/ml): 8.2%
- Hipp-Glu (% conversion) ([8]; enzyme 25 μg/ml): 100%
- Hipp-Asp (% conversion) ([9]; enzyme 0.02 μg/ml): 0%
- Hipp-Asp (% conversion) ([9]; enzyme 25 μg/ml): 14%
- Hipp-Arg (% conversion) ([10]; enzyme 0.02 μg/ml): 0%
- Hipp-Arg (% conversion) ([10]; enzyme 25 μg/ml): 5.2%
- Hipp-Glu (% conversion) ([13]; shockate concentration in reaction mixture 0.1 %): 60%
- Hipp-Glu (% conversion) [13, 16]: 93%
- Hipp-Glu (% conversion) [13, 17]: 100%
- fold more active against Hipp-Glu compared to Hipp-Arg ([13]; shockate samples, 24 h): over 900 fold
- fold more active than D253K at converting Hipp-Glu to hippuric acid ([13]; shockate samples, 24 h): at least 50 fold
- Hipp-Asp (% conversion) [14, 16]: 0%
- Hipp-Asp (% conversion) [14, 17]: 2.6%
- Hipp-Arg (% conversion) [15, 16]: 0.1%
- Hipp-Arg (% conversion) [15, 17]: 0.8%
- Prodrug Hydrolysis (%) ([11]; enzyme 1.5 μg/ml): 36.0%
